In the experiment the target is biotinylated CH848 DS SOSIP Trimer (HIV-1). Put plainly: SPR. A general note: SPR reads the build-up and loss of mass on a sensor chip optically.

B1: DH270.I5.6 Fab (Fab, V domains shown)
VH: QVQLVQSGAEVKKPGASVKVSCKASGYTFTDYYIHWVRQAPGQGLEWMGWINPNTGRTNSAQKFQGRVTMTRDTSISTAYMELSRLRSDDTAVYYCARGGWIGLYYDSSGYPNFDYWGQGTLVTVSS
VL: QSALTQPASVSGSPGQSITISCTGTSYDVGSYNLVSWYQQHPGKAPKLMIYEVSKRPSGVSNRFSGSKSGNTASLTISGLQAEDEADYYCCSYAGSSTVVFGGGTKLTVL
In turn, B1 displayed a fold improvement of the binding affinity relative to the UCA of 8 fold.
